Results taken from patent US12728168B2, “Anti-CEA antibody-exatecan analog conjugate and pharmaceutical use thereof” (JIANGSU HENGRUI MEDICINE CO., LTD., priority 2019, dated 2026).

T1: human CEACAM1 expressed on CHO cell surface (CEACAM1-CHO) (Homo sapiens, UniProt P13688)
T1 construct: expressed in transfected cells; host or cells: CHO cells
T1 sequence (P13688 35-526): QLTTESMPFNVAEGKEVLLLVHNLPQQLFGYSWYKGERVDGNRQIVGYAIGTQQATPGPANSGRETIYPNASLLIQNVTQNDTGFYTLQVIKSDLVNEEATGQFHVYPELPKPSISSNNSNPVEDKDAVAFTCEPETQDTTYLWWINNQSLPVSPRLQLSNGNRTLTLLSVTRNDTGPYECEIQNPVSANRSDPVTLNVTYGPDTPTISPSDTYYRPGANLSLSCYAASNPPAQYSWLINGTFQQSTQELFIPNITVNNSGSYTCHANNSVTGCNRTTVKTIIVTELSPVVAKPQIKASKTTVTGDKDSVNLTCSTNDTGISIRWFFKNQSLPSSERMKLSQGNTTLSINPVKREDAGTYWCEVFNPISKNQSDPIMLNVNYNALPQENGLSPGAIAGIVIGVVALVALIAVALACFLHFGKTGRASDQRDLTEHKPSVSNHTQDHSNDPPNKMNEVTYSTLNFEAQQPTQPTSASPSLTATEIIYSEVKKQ

B1: mAb63: murine anti-CEA monoclonal antibody, VH SEQ ID NO: 9, VL SEQ ID NO: 10 (antibody, V domains shown)
VH: EVQLQQSGPELVKPGASVKMSCKASGYTFTDFYMNWVRQSHGKSLEWIGDIFPKNGNTDYNRKFKDKATLTVDKSSNTVYMEFRSLTLEDSAIYFCARSGYGNYVFDYWGQGTIFTVSS
VL: DVQMTQTPSALSASLGDRVTISCRTSQDINIYLNWYQQKPDGTVKLLIYYRSGLLSGVPSRFSGSGSGTDYSLTISNLEPEDIATYFCQQGNTLPPTFGGGTKLEIK
B2: mAb103: murine anti-CEA monoclonal antibody, VH SEQ ID NO: 13, VL SEQ ID NO: 14 (antibody, V domains shown)
VH: QIQLVQSGPELKKPGETVKISCKASGYTFTTYGVIWVKQAPGKGLKWMGWINTYSGVPTYADDFKGRFAFSLETSASTAFLQINNLKNEDTATYFCARKKTLTTVTPWFAYWGQGTLVTVSA
VL: DLVVTQSSSASFSLGASAKLTCTLSSQHSTYTIEWYQQQPLKPPKYVMELKKDGSHSTGDGIPDRFSGSSSGADRYLTISNIQPEDEAIYICGVGNTIKEQFVYVFGGGTKVTVL
B3: mAb67: murine anti-CEA monoclonal antibody, VH SEQ ID NO: 11, VL SEQ ID NO: 12 (antibody, V domains shown)
VH: EVQLQQSGPELVKPGASVKIYCKASGYTFTDYHMNWVKQSHGKSLEWIGDINPDIGGTSYNQNFKGKATLTVDKSSSTAYMELRSLTSEDSAVYYCSRWDFDSFANWGQGTLVTVSA
VL: DIVMTQSPASLAMSLGKRATISCRASESVSIIGTNLIHWYQQKPGQPPKLLIYHASNLETGVPARFSGSGSGADFTLTIDPVEGDDVALYYCLQSRKIPYTFGGGTKMEIK

Legend:
[1] = molecular target: T1, human CEACAM1 expressed on CHO cell surface (CEACAM1-CHO); assay: FACS binding assay, CEACAM1-CHO cells
Description: In order to detect the binding of the antibody to the CEA protein on the cell surface, the binding activity of the antibody was determined by FACS using cells expressing CEA on the cell surface. Cells were harvested and centrifuged at 400 g at 4° C. for 5 min. Pre-cooled PBS containing FBS at final concentration 10% was added, and the mixture was centrifuged at 400 g at 4° C. for 5 min; the procedures were repeated twice. The cells were seeded into a 96-well plate at 10^5 cells/well, and 100 μL of gradient diluted antibody solution was added to each well. The plate was incubated at 4° C. for 60 min and centrifuged, and the supernatant was removed. 250 μL of pre-cooled PBS containing FBS at final concentration 10% was added to each well to resuspend the cells, and the suspension was centrifuged at 400 g at 4° C. for 5 min, followed by the removal of the supernatant; the procedures were repeated twice. 50 μL of 1:200 diluted secondary antibody Alexa Fluor@488 goat anti-human IgG (H+L) (Lifetechologies, Cat #A11013) was added. The plate was incubated in the dark at 4° C. for 45 min and centrifuged, and the supernatant was removed. 250 μL of pre-cooled PBS containing FBS at final concentration 10% was added to each cell to resuspend the cells, and the suspension was centrifuged at 400 g at 4° C. for 5 min; the procedures were repeated twice. 100 μL of pre-cooled PBS was added to each well to resuspend the cells. The plate was analyzed by a flow cytometer (BD, FACSverse) for fluorescence signal values. Higher values indicate higher binding activity of the antibody to the protein on the cell surface. Binding curves were plotted using PRISM analysis software based on the assay results, and the EC50 values for the binding activity of the antibody to the cell surface proteins human CEA (MKN45 human gastric cancer cells, Nanjing Kebai Biotechnology Co., Ltd., Cat #CBP60488), cynoCEA-CHO and CEACAM1-CHO were obtained by fitting.

[2] = test system: U87MG cells; assay: Inhibition of in vitro proliferation of U87MG cells (CTG); type: cell-based; settings: Homo sapiens, U-87 MG, 6 days of culture, read-out: IC50 (nM) U87
Description: (§1) This experiment was intended to test the inhibitory activity of the pharmaceutical compounds of the present disclosure against the in vitro proliferation of U87MG cells (Cell Bank, Chinese Academy of Sciences, Cat #TCHu138) and SK-BR-3 tumor cells (human breast cancer cells, ATCC, Cat #HTB-30). The cells were treated in vitro with a compound at different concentrations. After 6 days of culture, the proliferation of cells was tested using CTG (CellTiter-Glo® Luminescent Cell Viability Assay, Promega, Cat #G7573) reagents, and the in vitro activity of the compound was evaluated according to IC50 value.
(§2) The test for the inhibition of the in vitro proliferation of U87MG cells was taken as an example to illustrate the method of the present invention for testing the inhibitory activity of the compounds of the present invention against the in vitro proliferation of tumor cells. […]
(§3) Different test samples at 100 nM or 5 μM (100 μL) were added to the first column of a 96-well plate, and 100 μL of PBS was added to each well of the second column through the eleventh column. […] Plate reading: the 96-well cell culture plate was taken out and tested in a microplate reader (BMG labtech, PHERAstar FS) for chemiluminescence. […]
(§4) Data were processed and analyzed using Microsoft Excel and Graphpad Prism 5.

[3] = test system: SK-BR-3 tumor cells (human breast cancer cells); assay: Inhibition of in vitro proliferation of SK-BR-3 cells (CTG); type: cell-based; settings: 6 days of culture
Description: as §1, §2, §3, §4

Molecule | IC50 [2] | IC50 [3] | EC50 (nM) CEACAM1-CHO ([1]; Table 1, murine antibodies) | other results
Sanofi: the antibody in SAR-408701 (Sanofi), heavy chain SEQ ID NO: 88, light chain SEQ ID NO: 89; positive control [reference compound] |  |  |  | EC50 (nM) CEACAM1-CHO ([1]; Table 17, humanized antibodies and controls): No binding
CC[C@@]1(O)C(=O)OCc2c1cc1n(c2=O)Cc2c-1nc1cc(F)c(C)c3c1c2[C@@H](NC(=O)[C@@H](O)C1CC1)CC3 [1-A, (S)-2-cyclopropyl-N-((1S,9S)-9-ethyl-5-fluoro-9-hydroxy-4-methyl-10,13-dioxo-2,3,9,10,13,15-hexahydro-1H,12H-benzo[de]pyrano[3′,4′:6,7]indolizino[1,2-b]quinolin-1-yl)-2-hydroxyacetamide] | 2.31 nM | 8.11 nM |  | 
CC[C@@]1(O)C(=O)OCc2c1cc1n(c2=O)Cc2c-1nc1cc(F)c(C)c3c1c2[C@@H](NC(=O)[C@H](O)C1CC1)CC3 [1-B, (R)-2-cyclopropyl-N-((1S,9S)-9-ethyl-5-fluoro-9-hydroxy-4-methyl-10,13-dioxo-2,3,9,10,13,15-hexahydro-1H,12H-benzo[de]pyrano[3′,4′:6,7]indolizino[1,2-b]quinolin-1-yl)-2-hydroxyacetamide] | 0.86 nM | 0.33 nM |  | 
B1 |  |  | No binding | 
B2 |  |  | No binding | 
B3 |  |  | No binding | 
